Target: the molecule itself
Experiment: crystal structure

B1: Chloramphenicol acetyltransferase III (CATIII+GG construct) (enzyme)
chain: SGGNYTKFDVKNWVRREHFEFYRHRLPCGFSLTSKIDITTLKKSLDDSAYKFYPVMIYLIAQAVNQFDELRMAIKDDELIVWDSVDPQFTVFHQETETFSALSCPYSSDIDQFMVNYLSVMERYKSDTKLFPQGVTPENHLNISALPWVNFDSFNLNVANFTDYFAPIITMAKYQQEGDRLLLPLSVQVHHAVCDGFHVARFINRLQELCNSKLK
For B1, the “stoichiometry N” value was 3.

From publication doi:10.1101/2022.08.24.505111 (bioRxiv, 2022)
